In the supplement of paper PMC10567573:

B1: TOR1AIP2 (parent)
chain: YTSSQKVSPIQIDGAGRTWQDSDT

Variants of: B1
Assay: protein stability index of a GFP-peptide fusion (GPS, HEK-293T) (PSI 1-6); higher = more stable
Conditions: c terminus: a fixed tail appended
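Further: lentivirally expressed fusions sorted by FACS into six bins by GFP to DsRed ratio, PSI derived from sequencing read proportions per bin multiplied by bin number.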

Protein stability index: each site, then its substitutions
V7: S 3.52 | A 3.41 | G 3.96 | D 3.67 | Q 4.19 | N 3.97 | R 3.43 | E 3.46 | C 2.67 | P 3.6 | M 2.51 | Y 1.54 | L 3.12 | T 3.78 | F 3.64 | K 4.03 | H 3.58 | I 2.9
Q5: N 3.04 | H 2.87 | E 4.2 | M 3.86 | I 3.12 | K 3.45 | P 2.96 | D 4.04 | R 3.35 | Y 2.34 | L 3.58 | A 3.08 | T 3.6 | C 2.13 | G 3.38 | S 3.87 | V 3.31
K6: I 3.67 | S 3.51 | A 3.58 | H 3.51 | Y 1.31 | V 3.52 | C 3.04 | L 2.9 | P 4.01 | Q 3.76 | W 3.33 | R 3.41 | F 3.73 | M 3.6 | T 4.03 | N 3.97 | D 4.86 | G 3.42 | E 4.82
T2: P 3.93 | G 3.91 | N 4.41 | L 3.94 | D 5.15 | R 4.72 | F 4.19 | Y 3.54 | K 4.83 | E 4.74 | W 2.83 | I 2.58 | C 2.46 | Q 3.17 | A 3.8 | M 3.9 | H 2.14 | S 4.31
P9: F 2.05 | G 3.45 | H 3.22 | Q 3.44 | A 3.34 | N 3.49 | V 2.66 | E 4.28 | K 3.71 | R 3.37 | Y 2.22 | L 3.74 | C 3.02 | M 3.12 | I 2.69 | S 4.38 | T 3.98 | D 3.94
I10: A 3.77 | K 3.33 | C 3.25 | Q 4 | W 2.4 | H 3.5 | R 3.76 | P 4.18 | S 3.93 | E 4.58 | F 1.85 | G 3.85 | N 4.2 | L 3.52 | V 4.1 | D 4.32 | Y 1.57 | T 3.96 | M 3.44
S3: A 3 | W 3.04 | V 3.3 | M 3.01 | Y 2.81 | L 3.18 | E 3.87 | Q 3.82 | T 3.08 | P 2.57 | D 4.32 | I 3.13 | K 3.82 | G 3.61 | C 3.55 | H 4.38 | R 3.39 | N 4.21 | F 2.95
S8: D 2.9 | M 3.06 | N 4 | P 3.1 | G 3.25 | K 3.46 | A 3.52 | R 2.67 | F 2.75 | H 2.57 | W 3.33 | Q 3.17 | I 2.35 | C 3.12 | E 4.47 | L 2.82 | Y 2.16 | V 2.67 | T 3.36
Y1: S 4.77 | T 4.68 | W 3.6 | R 4.8 | V 4.26
D13: K 2.77 | V 2.39 | C 2.79 | M 2.21 | P 2.87 | F 1.67 | N 3.15 | I 2.35 | E 3.33 | H 2.64 | Q 3.27 | R 2.36 | G 3.07 | S 2.86 | Y 1.96 | A 3.2 | L 2.29 | W 1.54 | T 2.87
I12: H 4.21 | L 3.29 | K 3.76 | A 3.68 | Q 4.03 | C 2.7 | S 3.08 | G 4.59 | M 3.5 | V 2.97 | N 3.65 | E 5 | F 3.24 | P 3.99 | D 4.12 | T 3.65 | Y 3.19 | W 2.55 | R 3.63
Q11: R 3.11 | C 2.47 | G 2.06 | A 2.96 | I 2.72 | M 3.16 | T 3.56 | L 2.8 | P 3.93 | Y 2.2 | V 2.84 | S 3.73 | D 3.96 | N 3.4 | H 3.67 | W 5.21 | E 3.81 | F 2.06 | K 3.95
S4: C 2.78 | I 2.92 | G 3.59 | F 2.58 | Q 3.25 | M 2.65 | K 2.36 | E 3.35 | H 3.37 | L 2.84 | Y 2.67 | D 4.57 | N 3.65 | T 3.34 | P 3.18 | R 3.23 | V 3.27 | A 3.06
W19: H 4.09 | P 4.67 | I 3.96 | A 3.93 | R 4.13 | D 4.39 | F 3.92 | N 4.04 | C 3.88 | E 4.86 | Q 4.57 | K 4.56 | M 4.34 | L 4.11 | G 3.74
A15: Y 2.91 | E 3.52 | I 3.25 | G 3.04 | W 1.67 | Q 3.35 | T 3.36 | H 2.6 | N 3.71 | R 2.56 | C 3.03 | D 3.85 | V 2.82 | K 2.73 | S 2.95 | F 2.45 | L 2.93 | P 2.99
G14: R 1.95 | D 3.46 | N 3.5 | T 3.38 | H 3 | I 2.5 | C 4.45 | Y 2.78 | W 3.16 | S 3.51 | L 2.99 | P 3.28 | M 2.77 | F 2.83 | Q 3.57 | E 3.94 | V 2.78 | A 3.37
T18: W 2.3 | N 3.41 | K 3.33 | E 3.83 | G 3.47 | R 3.43 | D 4.01 | A 3.01 | S 2.87 | M 2.42 | I 2.63 | V 3.29 | Q 3.8 | P 3.38 | L 3 | C 2.9 | Y 2.74 | F 1.33
R17: P 4.25 | G 3.63 | V 3.64 | Q 3.79 | D 4.16 | Y 3.02 | L 3.21 | C 3.66 | A 3.66 | F 2.33 | E 4.4 | S 3.96 | H 2.24 | K 3.54 | I 3.59 | M 2.18 | T 3.6 | W 2.32 | N 3.02
G16: Y 2.89 | D 4.01 | H 3.41 | C 2.99 | E 3.32 | P 3.24 | M 3.65 | T 2.7 | S 2.9 | A 3.07 | L 3.07 | F 2.3 | Q 2.97 | K 3.33 | V 3 | N 1.93 | I 2.54 | R 3.19 | W 1.61
